Experimental data taken from the supplement of paper PMC9112550, “Optimization of the antimicrobial peptide Bac7 by deep mutational scanning” (BMC Biology, 2022).

tested on: Escherichia coli TOP10; test: shrunken log2 fold change of peptide-encoding DNA abundance (4.5 h post-induction vs induction); higher = less antimicrobial activity (less host growth inhibition); settings: time post-induction: 4.5 h; library: site-saturation at positions 5, 18, 19, 20
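Note: peptides expressed intracellularly from a pBAD plasmid library in pooled LB shake-flask culture, induced with 0.3% L-arabinose, DNA abundance read by NGS, three biological replicates, DESeq2 with apeglm shrinkage.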

In order of rising “shrunken log2 fold change” value:
1. RRIRCRPPRLPRPRPRPCYVPRP  -1.08
2. RRIRCRPPRLPRPRPRPFMEPRP  -0.996
3. RRIRCRPPRLPRPRPRPFIPPRP  -0.976
4. RRIRCRPPRLPRPRPRPFYVPRP  -0.825
5. RRIRCRPPRLPRPRPRPCMLPRP  -0.758
6. RRIRCRPPRLPRPRPRPCVLPRP  -0.7
7. RRIRCRPPRLPRPRPRPAYIPRP  -0.628
8. RRIRCRPPRLPRPRPRPFIVPRP  -0.575
9. RRIRCRPPRLPRPRPRPFEYPRP  -0.548
10. RRIRCRPPRLPRPRPRPFLYPRP  -0.513
11. RRIRCRPPRLPRPRPRPCSEPRP  -0.495
12. RRIRCRPPRLPRPRPRPFDKPRP  -0.493
13. RRIRCRPPRLPRPRPRPFIFPRP  -0.425
14. RRIRCRPPRLPRPRPRPGCNPRP  -0.425
15. RRIRCRPPRLPRPRPRPFQMPRP  -0.423
16. RRIRCRPPRLPRPRPRPEIFPRP  -0.422
17. RRIRCRPPRLPRPRPRPFQRPRP  -0.418
18. RRIRCRPPRLPRPRPRPCIHPRP  -0.415
19. RRIRCRPPRLPRPRPRPENKPRP  -0.415
20. RRIRCRPPRLPRPRPRPEYKPRP  -0.415
21. RRIRCRPPRLPRPRPRPCCVPRP  -0.409
22. RRIRCRPPRLPRPRPRPADVPRP  -0.391
23. RRIRCRPPRLPRPRPRPFREPRP  -0.386
24. RRIRCRPPRLPRPRPRPFGNPRP  -0.365
25. RRIRCRPPRLPRPRPRPAKIPRP  -0.361
26. RRIRCRPPRLPRPRPRPDCPPRP  -0.343
27. RRIRCRPPRLPRPRPRPCCQPRP  -0.342
28. RRIRARPPRLPRPRPRPYWCPRP  -0.33
29. RRIRCRPPRLPRPRPRPCEHPRP  -0.328
30. RRIRCRPPRLPRPRPRPGINPRP  -0.31
31. RRIRCRPPRLPRPRPRPFGEPRP  -0.282
32. RRIRCRPPRLPRPRPRPCYGPRP  -0.28
33. RRIRCRPPRLPRPRPRPFTEPRP  -0.28
34. RRIRCRPPRLPRPRPRPGCTPRP  -0.279
35. RRIRCRPPRLPRPRPRPFSGPRP  -0.275
36. RRIRCRPPRLPRPRPRPDWTPRP  -0.268
37. RRIRCRPPRLPRPRPRPDLKPRP  -0.257
38. RRIRARPPRLPRPRPRPYSAPRP  -0.256
39. RRIRCRPPRLPRPRPRPAHMPRP  -0.249
40. RRIRCRPPRLPRPRPRPAIHPRP  -0.248
41. RRIRCRPPRLPRPRPRPCRGPRP  -0.243
42. RRIRCRPPRLPRPRPRPADLPRP  -0.24
43. RRIRCRPPRLPRPRPRPGILPRP  -0.233
44. RRIRCRPPRLPRPRPRPDKVPRP  -0.224
45. RRIRCRPPRLPRPRPRPCEQPRP  -0.222
46. RRIRCRPPRLPRPRPRPAFLPRP  -0.214
47. RRIRCRPPRLPRPRPRPEKYPRP  -0.209
48. RRIRCRPPRLPRPRPRPAMDPRP  -0.207
49. RRIRCRPPRLPRPRPRPETLPRP  -0.193
50. RRIRCRPPRLPRPRPRPCMSPRP  -0.185
51. RRIRARPPRLPRPRPRPYVYPRP  -0.182
52. RRIRCRPPRLPRPRPRPAKGPRP  -0.179
53. RRIRCRPPRLPRPRPRPFGYPRP  -0.174
54. RRIRCRPPRLPRPRPRPFSDPRP  -0.165
55. RRIRCRPPRLPRPRPRPCVDPRP  -0.164
56. RRIRCRPPRLPRPRPRPDKMPRP  -0.156
57. RRIRCRPPRLPRPRPRPCAYPRP  -0.153
58. RRIRCRPPRLPRPRPRPFTSPRP  -0.152
59. RRIRCRPPRLPRPRPRPCEMPRP  -0.151
60. RRIRCRPPRLPRPRPRPCKVPRP  -0.147
61. RRIRCRPPRLPRPRPRPFVRPRP  -0.141
62. RRIRCRPPRLPRPRPRPACPPRP  -0.136
63. RRIRCRPPRLPRPRPRPFDQPRP  -0.136
64. RRIRCRPPRLPRPRPRPDGSPRP  -0.133
65. RRIRCRPPRLPRPRPRPEFFPRP  -0.127
66. RRIRCRPPRLPRPRPRPCIAPRP  -0.11
67. RRIRCRPPRLPRPRPRPFSMPRP  -0.107
68. RRIRCRPPRLPRPRPRPCHIPRP  -0.0941
69. RRIRCRPPRLPRPRPRPETEPRP  -0.0921
70. RRIRCRPPRLPRPRPRPDCQPRP  -0.0895
71. RRIRCRPPRLPRPRPRPDNVPRP  -0.0772
72. RRIRCRPPRLPRPRPRPCITPRP  -0.0767
73. RRIRCRPPRLPRPRPRPCSKPRP  -0.0735
74. RRIRCRPPRLPRPRPRPCVGPRP  -0.0691
75. RRIRCRPPRLPRPRPRPCRAPRP  -0.0671
76. RRIRCRPPRLPRPRPRPFTGPRP  -0.0668
77. RRIRCRPPRLPRPRPRPAKTPRP  -0.0664
78. RRIRCRPPRLPRPRPRPFEPPRP  -0.0564
79. RRIRCRPPRLPRPRPRPEHLPRP  -0.0545
80. RRIRCRPPRLPRPRPRPFLRPRP  -0.0477
81. RRIRCRPPRLPRPRPRPEIYPRP  -0.0456
82. RRIRCRPPRLPRPRPRPDTEPRP  -0.0455
83. RRIRCRPPRLPRPRPRPGHCPRP  -0.0435
84. RRIRCRPPRLPRPRPRPFGLPRP  -0.0423
85. RRIRCRPPRLPRPRPRPDKQPRP  -0.0405
86. RRIRCRPPRLPRPRPRPGEGPRP  -0.0346
87. RRIRCRPPRLPRPRPRPEFRPRP  -0.0284
88. RRIRARPPRLPRPRPRPYREPRP  -0.0268
89. RRIRCRPPRLPRPRPRPEFNPRP  -0.0266
90. RRIRCRPPRLPRPRPRPDVPPRP  -0.0242
91. RRIRCRPPRLPRPRPRPDWQPRP  -0.0213
92. RRIRCRPPRLPRPRPRPENLPRP  -0.0208
93. RRIRCRPPRLPRPRPRPDEMPRP  -0.0197
94. RRIRCRPPRLPRPRPRPEAYPRP  -0.0117
95. RRIRCRPPRLPRPRPRPFHHPRP  -0.00672
96. RRIRCRPPRLPRPRPRPAMTPRP  -0.0039
97. RRIRCRPPRLPRPRPRPFQQPRP  -0.00107
98. RRIRCRPPRLPRPRPRPGHEPRP  0.00505
99. RRIRCRPPRLPRPRPRPGNDPRP  0.00582
100. RRIRCRPPRLPRPRPRPFPPPRP  0.0149
101. RRIRCRPPRLPRPRPRPDKLPRP  0.0152
102. RRIRCRPPRLPRPRPRPEKVPRP  0.0187
103. RRIRCRPPRLPRPRPRPDDIPRP  0.0301
104. RRIRCRPPRLPRPRPRPELKPRP  0.0478
105. RRIRARPPRLPRPRPRPYVWPRP  0.053
106. RRIRCRPPRLPRPRPRPGFFPRP  0.0565
107. RRIRCRPPRLPRPRPRPCGLPRP  0.0617
108. RRIRCRPPRLPRPRPRPCAHPRP  0.0631
109. RRIRCRPPRLPRPRPRPAGHPRP  0.0641
110. RRIRCRPPRLPRPRPRPEQTPRP  0.0662
111. RRIRCRPPRLPRPRPRPAELPRP  0.0853
112. RRIRCRPPRLPRPRPRPERKPRP  0.086
113. RRIRCRPPRLPRPRPRPDYDPRP  0.0933
114. RRIRCRPPRLPRPRPRPAESPRP  0.0971
115. RRIRCRPPRLPRPRPRPEGFPRP  0.0977
116. RRIRCRPPRLPRPRPRPCCWPRP  0.103
117. RRIRCRPPRLPRPRPRPGDEPRP  0.105
118. RRIRCRPPRLPRPRPRPGLQPRP  0.109
119. RRIRCRPPRLPRPRPRPAFMPRP  0.117
120. RRIRCRPPRLPRPRPRPAFKPRP  0.132
121. RRIRCRPPRLPRPRPRPDLWPRP  0.134
122. RRIRCRPPRLPRPRPRPGEEPRP  0.135
123. RRIRCRPPRLPRPRPRPENWPRP  0.145
124. RRIRCRPPRLPRPRPRPEWCPRP  0.145
125. RRIRCRPPRLPRPRPRPEVKPRP  0.149
126. RRIRCRPPRLPRPRPRPGCEPRP  0.159
127. RRIRCRPPRLPRPRPRPAAKPRP  0.164
128. RRIRCRPPRLPRPRPRPEMWPRP  0.166
129. RRIRCRPPRLPRPRPRPFCMPRP  0.174
130. RRIRCRPPRLPRPRPRPARKPRP  0.21
131. RRIRCRPPRLPRPRPRPCLWPRP  0.238
132. RRIRCRPPRLPRPRPRPAASPRP  0.246
133. RRIRCRPPRLPRPRPRPGDQPRP  0.256
134. RRIRCRPPRLPRPRPRPEWAPRP  0.292
135. RRIRCRPPRLPRPRPRPDVAPRP  0.298
136. RRIRCRPPRLPRPRPRPGAMPRP  0.319
137. RRIRCRPPRLPRPRPRPDDEPRP  0.33
138. RRIRCRPPRLPRPRPRPFFWPRP  0.359
139. RRIRCRPPRLPRPRPRPGEWPRP  0.393
140. RRIRCRPPRLPRPRPRPEAGPRP  0.4
141. RRIRCRPPRLPRPRPRPAGAPRP  0.417
142. RRIRCRPPRLPRPRPRPGPWPRP  0.422
143. RRIRCRPPRLPRPRPRPGADPRP  0.484
144. RRIRCRPPRLPRPRPRPGCWPRP  0.569
145. RRIRCRPPRLPRPRPRPEDWPRP  0.595
146. RRIRCRPPRLPRPRPRPAGEPRP  0.598
147. RRIRCRPPRLPRPRPRPEPWPRP  0.634
148. RRIRCRPPRLPRPRPRPEQSPRP  0.67
149. RRIRCRPPRLPRPRPRPAQWPRP  0.696
150. RRIRCRPPRLPRPRPRPGGGPRP  0.76
